Experimental data as given in publication PMC12846365.

What was measured:
[1] = biological target: 48d.cl IC, 3 plasmid version (Fab-Fab-crosslinked, K126C) (HIV-1 strain BG505); assay: native gel or EMSA
[2] = biological target: 48d.cl IC, fusion version (gpCore + 48d heavy chain fusion, Fab-Fab-crosslinked K126C) (HIV-1 strain BG505); assay: native gel or EMSA

Substance	stoichiometry N [1]	stoichiometry N [2]
wtVRC01 (antibody)	1	1
wtA32 (antibody)	2	2
